Data reported in patent US20200239579A1 (Genmab, published 2020).

Tests used:
[1] = target: T1, human PD-L1 (full length, on cells) (human, UniProt Q9NZQ7 19-290); assay: flow cytometry on PC3 cells, PE anti-human IgG secondary, MFI (PE)
T1 construct: The entry holds the signal peptide; also called CD274; B7H1
Procedure: (§1) Cells (3-5×10⁴ cells/well) were incubated in polystyrene 96-well round-bottom plates (Greiner bio-one, cat. no. 650101) with serial dilutions of antibodies (range 0.0001 to 10 μg/mL in 5-fold dilution steps) in 50 μL PBS/0.1% BSA/0.02% azide (staining buffer) at 4° C. for 30 min.
(§2) After washing twice in staining buffer, cells were incubated in 50 μL secondary antibody at 4° C. for 30 min. As a secondary antibody, R-Phycoerythrin (PE)-conjugated goat-anti-human IgG F(ab′)₂ (Cat. no. 109-116-098, Jackson ImmunoResearch Laboratories, Inc., West Grove, Pa.) diluted 1:500 in staining buffer, was used for all experiments. Next, cells were washed twice in staining buffer, re-suspended in 20 μL staining buffer and analyzed on an iQue screener (Intellicyt Corporation, USA). Binding curves were analyzed using non-linear regression (sigmoidal dose-response with variable slope) using GraphPad Prism V75.04 software (GraphPad Software, San Diego, Calif., USA).

[2] = target: T2, PDLoneECDHisCtag (human, UniProt Q9NZQ7 19-238); assay: BLI cross-block, second antibody on PDLoneECDHisCtag held by immobilised 547; bold = blocking
T2 construct: Expressed in HEK-293F cells; theoretical molecular weight 29 kDa; also called recombinant human PD-L1 ECD; human PD-L1 (BLI); not shown: C-terminal His-tag; C-tag
Procedure: (§3) Antibody cross-block testing was performed using biolayer interferometry (BLI) on an Octet HTX instrument (ForteBio). Antibodies (20 μg/ml in 10 mM sodium acetate buffer pH 6.0 (ForteBio)) were immobilized on Amine-Reactive 2nd Generation (AR2G) biosensors (ForteBio) according to the instructions of the manufacturer. After a baseline (50 s) in Sample Diluent (ForteBio), biosensors containing immobilized antibodies were loaded for 500 s with PDLoneECDHisCtag (100 nM or 2.7 μg/ml), after which the association response of a second antibody (10 μg/ml) was followed for 500 s. Biosensors were regenerated by using 3 times 5 s alternating exposures to 10 mM glycine pH 2.5 and Sample Diluent. The experiment was repeated with a new set of second antibodies starting from the baseline step. Each biosensor was used 6 times. The experiment was performed at 30° C. using a shaker speed of 1000 rpm. Data was analyzed using Data Analysis Software v9.0.0.12 (ForteBio). The Y-axis was aligned to the association step and Savitzky-Golay filtering was applied. The average buffer response was subtracted from the association response of the second antibody in order to correct for the dissociation of PDLoneECDHisCtag from the immobilized antibody. The corrected association responses were plotted in a matrix format.

[3] = target: T3, human PD-L2 (full length, on CHO cells) (human, UniProt Q9BQ51 20-273); assay: flow cytometry on CHO cells expressing human PD-L2
T3 construct: whole, on cells; also called CHO-PD-L2 cells
T3 sequence (looked up): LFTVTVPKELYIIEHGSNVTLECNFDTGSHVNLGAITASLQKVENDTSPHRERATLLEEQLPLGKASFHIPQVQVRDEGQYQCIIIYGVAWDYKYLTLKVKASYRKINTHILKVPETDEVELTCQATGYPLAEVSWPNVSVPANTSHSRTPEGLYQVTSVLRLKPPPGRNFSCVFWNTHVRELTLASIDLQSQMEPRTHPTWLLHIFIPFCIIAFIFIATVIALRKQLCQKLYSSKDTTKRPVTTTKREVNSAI
Procedure: as §1, §2
A PE-conjugated PD-L2 specific antibody (Mylteni, clone MIH18; cat. no. 130-098-651) was used as positive control.

[4] = target: T2, PDLoneECDHisCtag; assay: BLI cross-block, second antibody on PDLoneECDHisCtag held by immobilised 632; plain = non-blocking
Procedure: as §3

[5] = target: T2, PDLoneECDHisCtag; assay: BLI (Octet HTX); antibody on anti-human IgG Fc capture sensor, PDLoneECDHisCtag as analyte; 1:1 global fit
Procedure: (§4) In a first set of experiments, affinities for recombinant-expressed human PD-L1 protein were determined using Bio-layer interferometry (BLI) on an Octet HTX instrument (ForteBio). Anti-Human IgG Fc Capture (AHC) biosensors (ForteBio) were loaded for 900 s with antibodies (1 μg/ml). […] The experiment was carried out while shaking at 1000 rpm at 30° C. Data was analyzed with Data Analysis Software v9.0.0.12 (ForteBio) using the 1:1 model and a global full fit with 1000 s association time and 200 or 1000 s dissociation time. Data traces were corrected by subtraction of a buffer reference, the Y-axis was aligned to the last 10 s of the baseline, and interstep correction as well as Savitzky-Golay filtering was applied. Data traces with a response <0.05 nm were excluded from analysis. As default, the fit using 1000 s dissociation time was used.

[6] = target: T2, PDLoneECDHisCtag; assay: BLI cross-block, second antibody on PDLoneECDHisCtag held by immobilised 511-LC33S; bold = blocking
Procedure: as §3

[7] = target: T2, PDLoneECDHisCtag; assay: BLI cross-block, second antibody on PDLoneECDHisCtag held by immobilised 338; bold = blocking
Procedure: as §3

[8] = target: T2, PDLoneECDHisCtag; assay: BLI cross-block, second antibody on PDLoneECDHisCtag held by immobilised 421-LC91S; bold = blocking
Procedure: as §3

[9] = target: T2, PDLoneECDHisCtag; assay: BLI cross-block, second antibody on PDLoneECDHisCtag held by immobilised MPDL; bold = blocking
Procedure: as §3

[10] = target: T2, PDLoneECDHisCtag; assay: BLI (Octet HTX); antibody on anti-human IgG Fc capture sensor, PDLoneECDHisCtag as analyte; 1:1 global fit, 200 s dissociation time
Procedure: as §4

[11] = target: T2, PDLoneECDHisCtag; assay: BLI cross-block, second antibody on PDLoneECDHisCtag held by immobilised 476-N101Q-LC33S; plain = non-blocking
Procedure: as §3

T2 sequence (Q9NZQ7 19-238, form in doubt): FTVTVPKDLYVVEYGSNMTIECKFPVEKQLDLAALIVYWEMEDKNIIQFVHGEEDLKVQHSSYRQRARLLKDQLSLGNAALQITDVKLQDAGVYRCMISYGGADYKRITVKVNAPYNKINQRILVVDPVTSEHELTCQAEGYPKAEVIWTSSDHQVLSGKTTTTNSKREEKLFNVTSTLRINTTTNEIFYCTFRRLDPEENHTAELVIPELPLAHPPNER
T1 sequence (Q9NZQ7 19-290 limits assumed): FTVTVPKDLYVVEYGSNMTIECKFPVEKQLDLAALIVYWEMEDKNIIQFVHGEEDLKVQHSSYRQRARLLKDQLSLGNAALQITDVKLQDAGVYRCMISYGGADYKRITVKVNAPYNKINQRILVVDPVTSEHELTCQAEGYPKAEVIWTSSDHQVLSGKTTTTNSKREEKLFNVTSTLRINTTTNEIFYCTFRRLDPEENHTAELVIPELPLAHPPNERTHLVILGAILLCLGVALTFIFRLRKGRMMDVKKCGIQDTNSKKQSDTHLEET

B1: IgG1-338-FEAR (antibody, V domains shown)
VH: EVQVVESGGGLVQPGGSLRLSCAASGFTFSRFWMSWVRQAPGKGLEWVANIKQDGGEKYYVDSVKGRFTISRDNAKNSLYLQMNSLRGEDTAVYYCARDDNWNGHFDYWGQGTLVTVSS
VL: DIQMTQSPSTLSASVGDRVTITCRASQSISSWLAWYQQKPGKAPNLLIYKASSLESGVPSRFSGSGSGTEFTLTISSLQPDDFATYYCQQYYGSYITFGQGTRLEIKR
[1]
  EC50 (read off the curve): ~0.03 µg/mL
[2]
  association response of the second antibody: 0 nm
[3]
  binding result: no binding
[4]
  association response of the second antibody: 0.6 nm
[5]
  Kd: 88 pM
  koff: 6.4e-05 s⁻¹
  kon: 730000 M⁻¹ s⁻¹
[6]
  association response of the second antibody: 0 nm
[7]
  association response of the second antibody: 0 nm
[8]
  association response of the second antibody: -0.1 nm
[9]
  association response of the second antibody: 0 nm

B2: IgG1-511-LC33S-FEAR (antibody, V domains shown)
VH: QVQLVQSGSELKKPGASVMVSCKASGYTFTSYVMNWVRQAPGQGLEWMGWINSYTGNPTSAQGFTGRFVFSFDTSVNTAYLQISSLKAEDTAVYYCARGYCTSTSCYLDYWGQGTLVTVSS
VL: SYELTQPPSVSVSPGHTARITCSGDALPKKYASWFQQKSGQAPVLVIYEDSKRPSGIPERFSGSTSGTMATLTISGAQVEDETDYYCYSADTSGTHRVFGGGTKLTVLG
[1]
  EC50 (read off the curve): ~0.01 µg/mL
[3]
  binding result: no binding
[10]
  Kd: 3800 pM
  koff: 0.0045 s⁻¹
  kon: 1.2e+06 M⁻¹ s⁻¹
[6]
  association response of the second antibody: 0 nm
[7]
  association response of the second antibody: 0 nm
[9]
  association response of the second antibody: 0 nm

B3: IgG1-547-FEAR (antibody, V domains shown)
VH: EVQLLEPGGGLVQPGGSLRLSCEASGSTFSTYAMSWVRQAPGKGLEWVSGFSGSGGFTFYADSVRGRFTISRDSSKNTLFLQMSSLRAEDTAVYYCAIPARGYNYGSFQHWGQGTLVTVSS
VL: SYVLTQPPSVSVAPGQTARITCGGNNIGSKSVHWYQQKPGQAPVLVVYDDNDRPSGLPERFSGSNSGNTATLTISRVEAGDEADYYCQVWDSSSDHVVFGGGTKLTVLG
[1]
  EC50 (read off the curve): ~0.04 µg/mL
[2]
  association response of the second antibody: 0 nm
[3]
  binding result: no binding
[4]
  association response of the second antibody: 0.6 nm
[5]
  Kd: 29 pM
  koff: 3.6e-05 s⁻¹
  kon: 1.2e+06 M⁻¹ s⁻¹
[11]
  association response of the second antibody: 0.7 nm
[7]
  association response of the second antibody: 0 nm
[8]
  association response of the second antibody: 0 nm
[9]
  association response of the second antibody: 0 nm
